Biological target: Cre recombinase (Bacteriophage P1?) (UniProt P06956)
Test: cell_activity
Details: pCA36 + pBHGloxΔE1,3 in 293Cre4 cells; 15 in 293 cells, homologous recombination background only

Chain of UniProt P06956 (P06956 whole entry): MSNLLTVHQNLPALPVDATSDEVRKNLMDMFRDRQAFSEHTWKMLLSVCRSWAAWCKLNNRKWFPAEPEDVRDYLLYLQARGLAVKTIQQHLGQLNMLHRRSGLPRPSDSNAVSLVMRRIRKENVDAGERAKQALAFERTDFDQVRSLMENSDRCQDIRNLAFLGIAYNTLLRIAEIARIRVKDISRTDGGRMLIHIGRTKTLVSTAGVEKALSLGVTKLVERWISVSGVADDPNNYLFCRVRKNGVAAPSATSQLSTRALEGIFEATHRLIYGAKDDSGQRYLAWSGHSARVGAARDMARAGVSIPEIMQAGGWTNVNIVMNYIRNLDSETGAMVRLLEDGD

Q: How did the activity (total plaques in 6 dishes) turn out when shuttle plasmid pCA36 without loxP was run?
A: Its activity (total plaques in 6 dishes) is 10.
